# Publication PMC4997346 (2016)
# No end group written: not given here.
# Tests used:
# [1] = molecular target: T1, FVIIa/TF extrinsic tenase complex [E] (Homo sapiens, UniProt P08709); assay: FIX activation inhibition kinetics (Lineweaver-Burk secondary plot)
# T1 chain 1: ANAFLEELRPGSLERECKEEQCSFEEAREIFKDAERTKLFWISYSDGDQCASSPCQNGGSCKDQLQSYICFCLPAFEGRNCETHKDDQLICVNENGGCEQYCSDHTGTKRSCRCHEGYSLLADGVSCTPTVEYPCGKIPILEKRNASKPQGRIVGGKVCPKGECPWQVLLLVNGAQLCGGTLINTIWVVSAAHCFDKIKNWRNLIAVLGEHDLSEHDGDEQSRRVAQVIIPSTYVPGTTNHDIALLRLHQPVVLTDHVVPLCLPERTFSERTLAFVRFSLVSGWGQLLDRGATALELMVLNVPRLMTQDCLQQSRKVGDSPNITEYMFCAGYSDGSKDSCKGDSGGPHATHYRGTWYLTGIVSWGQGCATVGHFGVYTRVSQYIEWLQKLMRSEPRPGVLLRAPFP
# T1 chain 2: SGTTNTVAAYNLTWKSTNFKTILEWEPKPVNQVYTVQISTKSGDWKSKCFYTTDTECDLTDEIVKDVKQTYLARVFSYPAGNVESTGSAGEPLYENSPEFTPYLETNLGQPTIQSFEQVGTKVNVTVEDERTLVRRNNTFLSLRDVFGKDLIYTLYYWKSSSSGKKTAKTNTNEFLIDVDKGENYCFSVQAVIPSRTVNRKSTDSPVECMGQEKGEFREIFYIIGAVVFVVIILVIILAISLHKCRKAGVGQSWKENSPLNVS
# [2] = molecular target: FVIIa/FX complex [ES] (Homo sapiens, UniProt P08709); assay: FX activation inhibition kinetics (Lineweaver-Burk secondary plot, Ki')
# [3] = molecular target: FVIIa/TF/FX extrinsic tenase complex [ES] (Homo sapiens, UniProt P08709); assay: as above
# [4] = molecular target: FVIIa/TF/FIX complex [ES] (Homo sapiens, UniProt P08709); assay: FIX activation inhibition kinetics (Lineweaver-Burk secondary plot, Ki')
# [5] = molecular target: T1, FVIIa/TF extrinsic tenase complex [E]; assay: FX activation inhibition kinetics (Lineweaver-Burk secondary plot)
# [6] = molecular target: intrinsic tenase complex (FIXa/FVIIIa) (Homo sapiens, UniProt P00740); assay: as above
# intrinsic tenase complex (FIXa/FVIIIa), sequence (P00740 47-461, chain 1 of 2): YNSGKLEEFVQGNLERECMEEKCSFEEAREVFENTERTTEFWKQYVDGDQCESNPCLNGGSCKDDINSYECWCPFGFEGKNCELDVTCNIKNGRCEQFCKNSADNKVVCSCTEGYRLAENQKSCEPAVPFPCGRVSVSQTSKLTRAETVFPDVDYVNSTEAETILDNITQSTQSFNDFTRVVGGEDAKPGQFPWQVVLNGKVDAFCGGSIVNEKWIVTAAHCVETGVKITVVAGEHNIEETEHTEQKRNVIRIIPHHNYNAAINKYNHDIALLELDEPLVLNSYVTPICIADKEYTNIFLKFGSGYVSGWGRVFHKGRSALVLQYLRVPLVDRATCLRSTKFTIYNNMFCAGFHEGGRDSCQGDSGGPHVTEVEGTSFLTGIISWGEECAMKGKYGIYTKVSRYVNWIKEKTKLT
# intrinsic tenase complex (FIXa/FVIIIa), sequence (P00451 20-2351, chain 2 of 2, further chain): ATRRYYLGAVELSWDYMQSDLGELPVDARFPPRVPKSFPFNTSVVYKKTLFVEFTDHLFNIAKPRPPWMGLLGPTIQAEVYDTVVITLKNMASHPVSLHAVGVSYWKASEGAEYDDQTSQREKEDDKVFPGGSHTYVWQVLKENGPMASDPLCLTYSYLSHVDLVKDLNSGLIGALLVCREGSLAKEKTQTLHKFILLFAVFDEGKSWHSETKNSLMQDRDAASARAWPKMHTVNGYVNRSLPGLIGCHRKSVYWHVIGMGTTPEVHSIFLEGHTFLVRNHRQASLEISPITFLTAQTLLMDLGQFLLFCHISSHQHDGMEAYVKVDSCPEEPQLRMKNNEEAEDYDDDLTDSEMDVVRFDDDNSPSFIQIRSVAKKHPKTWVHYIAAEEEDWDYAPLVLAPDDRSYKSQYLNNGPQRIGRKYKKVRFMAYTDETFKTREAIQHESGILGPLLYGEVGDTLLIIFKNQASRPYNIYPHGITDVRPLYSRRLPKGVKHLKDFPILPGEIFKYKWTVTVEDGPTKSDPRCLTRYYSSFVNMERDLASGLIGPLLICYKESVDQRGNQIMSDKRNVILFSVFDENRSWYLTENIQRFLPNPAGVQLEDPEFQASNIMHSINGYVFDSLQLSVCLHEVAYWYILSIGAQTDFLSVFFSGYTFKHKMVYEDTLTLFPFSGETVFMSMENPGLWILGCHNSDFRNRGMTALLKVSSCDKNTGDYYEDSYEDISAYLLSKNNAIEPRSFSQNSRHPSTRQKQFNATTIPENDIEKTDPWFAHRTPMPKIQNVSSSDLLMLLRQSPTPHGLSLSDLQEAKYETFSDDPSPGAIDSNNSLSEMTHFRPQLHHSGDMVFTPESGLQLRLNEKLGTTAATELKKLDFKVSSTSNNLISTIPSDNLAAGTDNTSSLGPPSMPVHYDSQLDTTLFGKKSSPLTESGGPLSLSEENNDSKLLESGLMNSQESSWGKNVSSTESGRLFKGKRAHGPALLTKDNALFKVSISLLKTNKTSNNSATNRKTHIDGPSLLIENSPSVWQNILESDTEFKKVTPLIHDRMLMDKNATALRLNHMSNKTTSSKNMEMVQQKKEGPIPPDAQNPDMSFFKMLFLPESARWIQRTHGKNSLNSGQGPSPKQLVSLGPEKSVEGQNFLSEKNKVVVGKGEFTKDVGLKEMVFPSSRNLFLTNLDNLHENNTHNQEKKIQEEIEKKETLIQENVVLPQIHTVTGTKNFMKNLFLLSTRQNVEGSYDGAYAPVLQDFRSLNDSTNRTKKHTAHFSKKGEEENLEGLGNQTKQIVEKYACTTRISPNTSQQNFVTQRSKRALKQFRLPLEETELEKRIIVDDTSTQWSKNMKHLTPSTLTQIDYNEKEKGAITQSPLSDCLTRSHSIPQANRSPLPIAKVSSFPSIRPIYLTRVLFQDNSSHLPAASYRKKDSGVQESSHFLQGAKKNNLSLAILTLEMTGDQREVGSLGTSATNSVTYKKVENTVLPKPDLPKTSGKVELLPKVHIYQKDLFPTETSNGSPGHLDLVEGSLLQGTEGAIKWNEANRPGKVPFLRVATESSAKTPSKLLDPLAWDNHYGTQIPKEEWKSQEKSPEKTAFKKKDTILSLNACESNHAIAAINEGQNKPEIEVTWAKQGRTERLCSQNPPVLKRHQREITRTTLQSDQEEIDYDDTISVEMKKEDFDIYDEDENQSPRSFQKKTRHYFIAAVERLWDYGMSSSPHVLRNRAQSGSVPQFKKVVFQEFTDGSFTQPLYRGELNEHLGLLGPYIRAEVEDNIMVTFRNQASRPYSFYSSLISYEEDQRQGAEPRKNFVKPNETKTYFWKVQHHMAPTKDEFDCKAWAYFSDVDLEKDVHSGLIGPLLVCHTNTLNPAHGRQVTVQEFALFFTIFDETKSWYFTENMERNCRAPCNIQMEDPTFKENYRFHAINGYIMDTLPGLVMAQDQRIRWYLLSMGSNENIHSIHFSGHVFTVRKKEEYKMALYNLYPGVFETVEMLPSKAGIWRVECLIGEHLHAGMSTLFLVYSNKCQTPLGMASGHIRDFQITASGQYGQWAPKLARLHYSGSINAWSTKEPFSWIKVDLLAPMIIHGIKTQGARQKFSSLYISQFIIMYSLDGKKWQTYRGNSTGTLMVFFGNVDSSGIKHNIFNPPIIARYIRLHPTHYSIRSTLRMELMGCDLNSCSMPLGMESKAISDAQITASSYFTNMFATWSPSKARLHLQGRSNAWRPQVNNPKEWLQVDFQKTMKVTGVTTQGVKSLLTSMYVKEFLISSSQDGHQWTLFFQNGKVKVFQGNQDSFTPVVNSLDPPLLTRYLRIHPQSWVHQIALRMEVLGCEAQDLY
# [7] = molecular target: T2, FVIIa [E] (Homo sapiens, UniProt P08709); assay: as above
# T2 chain 1: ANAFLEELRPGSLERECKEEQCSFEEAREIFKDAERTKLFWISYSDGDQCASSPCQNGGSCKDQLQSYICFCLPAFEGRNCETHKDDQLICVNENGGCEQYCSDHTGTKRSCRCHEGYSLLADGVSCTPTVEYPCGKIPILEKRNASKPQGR
# T2 chain 2: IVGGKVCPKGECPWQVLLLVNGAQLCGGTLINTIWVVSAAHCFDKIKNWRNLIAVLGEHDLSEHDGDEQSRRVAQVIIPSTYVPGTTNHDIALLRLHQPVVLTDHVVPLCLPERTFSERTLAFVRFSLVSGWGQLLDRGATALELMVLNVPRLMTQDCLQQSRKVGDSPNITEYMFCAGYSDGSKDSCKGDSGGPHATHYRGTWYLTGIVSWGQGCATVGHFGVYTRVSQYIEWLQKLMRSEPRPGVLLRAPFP
# [8] = molecular target: FVIIa/sTF/FX complex [ES] (Homo sapiens, UniProt P08709); assay: FX activation inhibition kinetics (Lineweaver-Burk secondary plot, Ki')
# [9] = molecular target: T3, FVIIa/sTF complex [E] (Homo sapiens, UniProt P08709); assay: FX activation inhibition kinetics (Lineweaver-Burk secondary plot)
# T3 chain 1: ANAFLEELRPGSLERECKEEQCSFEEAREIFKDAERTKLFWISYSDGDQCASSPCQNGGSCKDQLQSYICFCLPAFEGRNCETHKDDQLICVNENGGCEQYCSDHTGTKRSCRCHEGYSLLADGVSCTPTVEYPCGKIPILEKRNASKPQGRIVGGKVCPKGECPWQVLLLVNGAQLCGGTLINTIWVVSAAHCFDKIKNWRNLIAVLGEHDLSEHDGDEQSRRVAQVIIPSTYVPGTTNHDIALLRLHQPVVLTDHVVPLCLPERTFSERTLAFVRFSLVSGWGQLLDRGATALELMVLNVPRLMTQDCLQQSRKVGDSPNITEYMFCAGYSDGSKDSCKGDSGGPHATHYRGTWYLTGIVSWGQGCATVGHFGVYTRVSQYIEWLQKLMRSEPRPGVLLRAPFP
# T3 chain 2: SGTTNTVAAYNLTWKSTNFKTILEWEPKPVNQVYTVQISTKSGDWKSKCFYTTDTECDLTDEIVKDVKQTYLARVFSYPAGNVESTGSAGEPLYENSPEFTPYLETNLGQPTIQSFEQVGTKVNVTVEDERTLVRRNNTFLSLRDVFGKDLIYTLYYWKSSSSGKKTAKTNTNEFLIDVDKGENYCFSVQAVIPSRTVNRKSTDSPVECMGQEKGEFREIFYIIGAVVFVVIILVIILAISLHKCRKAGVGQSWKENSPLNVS
Binder,Ki [1] [µM],Ki [2] [nM],Ki [3] [nM],Ki [4] [µM],Ki [5] [nM],Ki [6] [nM],Ki [7] [nM],Ki [8] [µM],Ki [9] [mM]
"exactin (protein, disulfide (positions not given here); also: four disulfide bonds, pairing not given here) LECYQKSKVVTCQPEQKFCYSDTTMFFPNHPVYLSGCTFSCTEEGNRRCCTTDKCNR",129,103,30.6,38.7,154,1670,184,,
exactin (protein) LECYQKSKVVTCQPEQKFCYSDTTMFFPNHPVYLSGCTFSCTEEGNRRCCTTDKCNR,,,,,,,,295,1.25
